Results from patent US12012457 (SYNTHEKINE, dated 2024).
Substitutions are numbered along the chain they refer to.

T1: extracellular domain of human IL23R (hIL23R ECD) (human, UniProt Q5VWK5 24-355)
T1 construct: also called hIL-23 ECD antigen
T1 sequence: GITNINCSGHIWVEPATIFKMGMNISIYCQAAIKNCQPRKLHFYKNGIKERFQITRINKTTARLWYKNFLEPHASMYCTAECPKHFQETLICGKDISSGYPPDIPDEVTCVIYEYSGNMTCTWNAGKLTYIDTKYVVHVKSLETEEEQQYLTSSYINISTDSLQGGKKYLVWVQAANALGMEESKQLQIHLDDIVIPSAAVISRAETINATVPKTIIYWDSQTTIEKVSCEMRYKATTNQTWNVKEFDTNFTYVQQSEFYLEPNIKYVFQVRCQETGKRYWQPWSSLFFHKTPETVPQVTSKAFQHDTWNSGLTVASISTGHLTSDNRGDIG

B1: hIL23R VHH6 (VHH)
VHH: QVQLQESGGGLVQPGGSLRLSCAASGYTYCSYDMGWYRQAPGKKRKFVSSINSDGTTSYADSVKGRFTISQDNAKNTVYLQMNSLKPEDTAMYYCKTDPQTRPGKPCADYWGQGTQVTVSS
B2: hIL23R VHH9 (VHH)
VHH: B1 VHH with P14A, G35S, K44E
B3: hIL23R VHH3 (VHH)
VHH: QVQLQESGGGSVQAGESLRLSCAASGYTYCTYDMTWYRQAPGKKREFVSGIHSDGTTSYADSVKGRFTISQDNAENTVYLQMNSLKPEDTAMYYCKTDPIATITRRCDSYWGQGTQVTVSS
B4: hIL23R VHH4 (VHH)
VHH: QVQLQESGGGSVQAGGSLRLSCAASGSTYCTYDMTWYRQAPGKRREFVSAINSDGSTSYADSVKGRFTISQDNAKNTVYLQMNSLKPEDTAMYYCKTDPNSGWGAPCGGDYWGQGTQVTVSS

Molecular target: T1, extracellular domain of human IL23R …
Assay: periplasmic extract ELISA (PE-ELISA), 96-well plate, colorimetric

| binding result | Binder |
| --- | --- |
| binds | B1 |
| binds | B2 |
| binds | B3 |
| binds | B4 |
